The target of assay [1] is LigA10-11 (L. interrogans). In words: ELISA; Lig tandem-domain constructs immobilised; 1 μg of C4BP mixed with heparin (0-10 mg/ml); detected with mouse monoclonal anti-C4BP α/β chains; binding without heparin set as 100%.
Another assay deals with LigB7-8 (L. interrogans). The assay is described as above.
Assay [2] has as its target LigB9-10 (L. interrogans). The assay is described as above.
For another assay, the target named is LcpA (L. interrogans). Put plainly: ELISA; LigA, LigB or LcpA immobilised; commercial C4BP in 10 mM Na2HPO4, 1.8 mM KH2PO4 with NaCl 0 to 600 mM; detected with polyclonal rabbit anti-C4BP; binding without NaCl set as 100%.
Assay [3] deals with LigBC (fragment of leptospiral immunoglobulin-like protein B, residues 631-1156) (L. interrogans). Described as above.
Assay [4] addresses Human purified C4BP (α7β1) (human) (UniProt P04003). Put plainly: ELISA; increasing concentrations of Lig proteins with a fixed amount of C4BP (1 μg); Kd estimated by nonlinear regression, Y = Bmax*X/(Kd + X).
The target of assay [5] is T1, Human purified C4BP (α7β1) (human, UniProt P04003 49-597; P20851 18-252).
T1 construct: also called C4BP WT (commercial); source: bought: Complement Technology (Texas, USA), human purified; copies: 7 + 1
T1 sequence 1: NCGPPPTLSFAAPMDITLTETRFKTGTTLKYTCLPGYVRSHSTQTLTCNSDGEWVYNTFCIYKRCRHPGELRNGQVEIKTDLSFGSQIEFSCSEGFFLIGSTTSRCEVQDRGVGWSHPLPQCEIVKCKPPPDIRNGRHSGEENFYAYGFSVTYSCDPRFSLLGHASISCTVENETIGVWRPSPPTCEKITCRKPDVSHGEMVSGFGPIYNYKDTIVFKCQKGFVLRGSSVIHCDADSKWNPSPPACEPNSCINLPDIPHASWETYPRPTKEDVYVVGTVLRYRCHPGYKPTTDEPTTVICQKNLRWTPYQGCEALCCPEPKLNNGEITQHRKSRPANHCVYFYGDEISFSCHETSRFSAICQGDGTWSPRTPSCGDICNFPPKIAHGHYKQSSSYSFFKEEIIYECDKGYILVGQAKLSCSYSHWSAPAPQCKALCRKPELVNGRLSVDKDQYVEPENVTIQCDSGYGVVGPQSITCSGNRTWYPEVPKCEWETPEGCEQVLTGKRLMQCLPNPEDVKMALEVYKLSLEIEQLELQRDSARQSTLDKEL
T1 sequence 2: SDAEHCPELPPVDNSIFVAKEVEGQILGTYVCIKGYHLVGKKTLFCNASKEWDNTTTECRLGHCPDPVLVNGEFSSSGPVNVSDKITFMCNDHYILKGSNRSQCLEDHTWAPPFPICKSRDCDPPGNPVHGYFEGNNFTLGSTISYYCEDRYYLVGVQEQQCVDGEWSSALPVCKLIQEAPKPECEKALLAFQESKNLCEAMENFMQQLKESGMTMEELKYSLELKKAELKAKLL
The assay is described as above. As to conditions: both partners purified.

Take “Human purified C4BP (α7β1) (from UniProt P04003 49-597; P20851 18-252) (complex)”: the percent reduction of binding with 10 mg/ml heparin in assay [1] was 35%; with LigB7-8 (L. interrogans), 45%; in assay [2], 27%. Also, the percent decrease of binding at 150 mM NaCl with LcpA (L. interrogans) was 30%; in assay [3] it was 45%.
With “LigBC (fragment of leptospiral immunoglobulin-like protein B, residues 631-1156) (domain or fragment)”, the Kd in assay [4] is 51.6 nM.

B1: LigAC (C-terminal fragment of leptospiral immunoglobulin-like protein A, residues 631-1225) (domain or fragment)
chain: LTVSNTNAKRGLGSTLKQGTVKVTASMGGIEDSVDFTVTQATLTSIEVSPTRASIAKGMTQKFTATGIFTDHSKKNITEQVTWKSSSKALSMLNAPGEEGTGKAIAVGKTTITATLEKLSGKTDITVTPAVLTSIQISPVKHSLVKGLTEKFSATGIYSDNSNKDITSSVTWHSSNNSVATISNTKGYQGQAYGTGTGTVNIKATLGNVSSQVSKLSVTAAELTEIVLNPTSSHKAKGLTENFKATGVFTDNSTKDITDQVTWKSSNAAYAKISNATGSKGVVNALSKGTSHISATLGSISSANATFQVTPARIASIEVTPNNFFLIKGLSHPFKAIGIYTDNTKTDITKQVSWSSSDPNVASIDNTFSLAGSATAIDDGKTNITATLSDSMSASTTLYVTSAVLIDIEVKPSIFVLSEGLTLQLTATGIYSDHSTHDLTQVVQWTSSKPSNIAIENTAGKKGKVTALAFGDSEFTATYDSIKSNRAWIFVNDEKLVNITISSSQVLTDKGSAQQFKAIGTFQGGSQLDLTDLVTWKSSDSKVVSISNSNDDRGLTTALSVGSSKISAIYGSIHSDSIDFEVTPEILASIKTEP
For the molecule B1, the Kd in assay [5] is 88.8 ± 7.8 nM.
